The values below come from patent US20130253173A1 (Novo Nordisk, published 2013).

For one assay, the target named is T1, full length human TFPI (human, UniProt P10646 29-304).
T1 construct: also called wild type (wt) TFPI; TFPI Fl
T1 sequence: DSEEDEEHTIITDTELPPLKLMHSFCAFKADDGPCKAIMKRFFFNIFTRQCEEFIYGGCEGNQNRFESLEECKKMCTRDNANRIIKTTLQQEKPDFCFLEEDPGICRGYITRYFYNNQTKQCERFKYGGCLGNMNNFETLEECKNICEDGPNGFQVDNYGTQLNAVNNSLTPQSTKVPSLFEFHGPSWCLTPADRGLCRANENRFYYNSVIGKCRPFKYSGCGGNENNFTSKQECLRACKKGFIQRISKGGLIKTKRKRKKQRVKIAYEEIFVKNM
Nature of the assay: SPR (Biacore 3000), mAb captured on immobilised anti-mouse IgG, TFPI in solution, 1:1 model. As for the experimental part:
(§1) Binding interaction analysis was obtained by Surface Plasmon Resonance in a Biacore 3000. Capture of the relevant monoclonal antibody at a fixed concentration was obtained with immobilised mouse anti-IgG. Different concentrations of TFPI were tested. Determination of binding constants (kₒₙ, koff, KD) was obtained assuming a 1:1 interaction of TFPI and the antibody of interest.
On the technique in general: Surface plasmon resonance follows binding to a sensor surface in real time, without labels.

For a further assay, the target named is T2, Rabbit TFPI (rabbit, UniProt P19761 25-300, limits assumed).
T2 sequence (looked up): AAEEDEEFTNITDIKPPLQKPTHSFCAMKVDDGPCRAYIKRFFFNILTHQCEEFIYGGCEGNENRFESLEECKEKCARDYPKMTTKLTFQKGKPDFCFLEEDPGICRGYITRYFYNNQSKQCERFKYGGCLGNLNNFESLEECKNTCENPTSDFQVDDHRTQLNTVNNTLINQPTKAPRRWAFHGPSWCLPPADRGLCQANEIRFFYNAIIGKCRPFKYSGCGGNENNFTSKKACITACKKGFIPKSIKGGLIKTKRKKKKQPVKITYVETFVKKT
The assay is described as above. The method, then:
as §1

Another assay concerns the target T3, truncated TFPI (1-239) (human, UniProt P10646 29-267).
T3 construct: Expressed in HEK293-F cells; conditioned medium used
T3 sequence: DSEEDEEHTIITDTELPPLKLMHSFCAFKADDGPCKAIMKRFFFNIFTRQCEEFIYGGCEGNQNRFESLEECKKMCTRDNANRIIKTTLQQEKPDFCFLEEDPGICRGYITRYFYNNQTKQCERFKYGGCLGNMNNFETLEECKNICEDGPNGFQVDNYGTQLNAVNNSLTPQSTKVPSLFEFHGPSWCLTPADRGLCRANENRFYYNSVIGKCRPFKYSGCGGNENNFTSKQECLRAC
Nature of the assay: binding of TFPI variants to anti-TFPI MAbs relative to TFPI-WT (=1.0); ELISA or ForteBio with HEK293-F conditioned medium, Example 7. As for the experimental part: (§2) The effect of truncating the C-terminal tail of TFPI on TFPI's binding affinity to MuTFPI22F66, MuTFPI22F71, MuTFPI22F74, MuTFPI22F79 and MuTFPI22F132 was analyzed by means of ELISA, or real-time binding analysis, using the ForteBio platform. […] The ELISAs, or the real-time binding analyses, were carried out using the conditioned medium from the cell cultures.
(§3) The concentrations of wt TFPI and truncated TFPI mutants in the conditioned medium were estimated by means of an ELISA that binds TFPI K1-K2 (Goat anti-TFPI, in-house) and K2 (MAb4F36, in-house). The binding to these antibodies is not affected by the truncations. Alternatively, biotin-labelled MAb4F36 was captured on streptavidin coated BioSensor tips (ForteBio) and used for concentration estimations.
(§4) In the ELISA setting, the effect of the mutations on TFPI's ability to bind to MuTFPI22F66, MuTFPI22F71, MuTFPI22F74, MuTFPI22F79 or MuTFPI22F132 was analyzed using each of the listed MAbs as capturing antibody and using MAb4F36 for detection. Direct binding of TFPI variants to biotin-labelled MuTFPI22F66, MuTFPI22F71, MuTFPI22F74, MuTFPI22F79, and MuTFPI22F132, captured on streptavidin coated BioSensor tips (ForteBio), was measured using the ForteBio platform.
Background: An ELISA detects its analyte on a solid surface through an enzyme-linked reagent.

A further assay has as its target T4, truncated TFPI (1-240) (human, UniProt P10646 29-268).
T4 construct: Expressed in HEK293-F cells; conditioned medium used
T4 sequence: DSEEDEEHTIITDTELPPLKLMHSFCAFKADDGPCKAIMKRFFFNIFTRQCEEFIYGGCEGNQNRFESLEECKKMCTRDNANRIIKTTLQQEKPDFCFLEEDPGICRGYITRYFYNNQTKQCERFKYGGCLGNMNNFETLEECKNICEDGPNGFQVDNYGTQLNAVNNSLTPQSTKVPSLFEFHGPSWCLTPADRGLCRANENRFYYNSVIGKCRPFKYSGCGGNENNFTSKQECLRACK
Described as above. As for the experimental part:
as §2, §3, §4

B1: MuTFPI4F110 (antibody, mouse IgG1, V domains shown)
VH: QVQLQQSGAELVKPGASVKLSCKASGYTFISYYMYWVKQRPGQGLEWIGEINPSNGDTNLNEKFKSKATLTVDKSSSTVYMQLSSLTSEDSAVYYCTRWDRFDGFVYWGQGTLVTVSA
VL: ETTVTQSPASLSMAIGGKVTIRCIISTNIDDDINWYQQKPGEPPKLLISEGNTLRPGVPSRFSSSGYGTDFVFTIENMLSEDVADYYCLQSDDLPYTFGGGTKLEIKR
notes: also called anti-TFPI4F110; mAb 4F110
Take B1: in the assay with full length human TFPI, the Kd (as a rule, a measure of binding affinity in units of concentration) is 0.002 nM.

B2: MuTFPI22F66 (antibody, mouse IgG1, V domains shown)
VH: EVQLQQSGPELVKPGASMKISCKASGYSFTGYPMNWVRQSHGKNLEWIGLINPYNGDTTFNQKFKGKATLTVDKSSSTAYMELLSLTSEDSAVYYCARGTYEYVDYWGQGTTLTVSS
VL: QIVLTQSPTIMSASPGERVTMTCSASSSVFYMHWYQQKPGSSPRLLIYDTSILSSGVPVRFSGSGSGTSYSLTIRRMEAEDAATYYCQQWSSYPLTFGAGTKLELKR
notes: also called anti-TFPI22F66
As to B2, the values for the Kd in the assay with Rabbit TFPI and in the assay with full length human TFPI were 3.76 nM and 0.6 nM, respectively. For the same molecule, the binding result with truncated TFPI (1-239) and with truncated TFPI (1-240) was “no binding” throughout.

B3: MuTFPI22F71 (antibody, mouse IgG1, V domains shown)
VH: EVQLQQSGTVLARPGASVKMSCKASGYSFTTYWIHWVKQRPGQGLEWIGAIDPGNSDATYSQKFKDKAKLTAVTSASTAFMELNSLTNDDSAVYYCSREVYYGYDGDYFDYWGQGTTLTVSS
VL: DIVLTQSPASLAVSLGQRATISCRASESVSVHGTHLMHWYQQKPGQPPKLLIYAASKLESGVPARFSGSGSETDFTLNIHPVEEEDAATYFCQQSIGDPWTFGGGTKLEIKR
notes: also called anti-TFPI22F71
With B3, the Kd with Rabbit TFPI worked out at 0.18 nM; with full length human TFPI it was 0.8 nM. Moreover, in the assay with truncated TFPI (1-239), the binding result is on record as “no binding”.
